Molecular target: MMP9 full length (UniProt P14780 20-707)
Assay: fluorescence polarization

MMP9 full length, sequence (P14780 20-707): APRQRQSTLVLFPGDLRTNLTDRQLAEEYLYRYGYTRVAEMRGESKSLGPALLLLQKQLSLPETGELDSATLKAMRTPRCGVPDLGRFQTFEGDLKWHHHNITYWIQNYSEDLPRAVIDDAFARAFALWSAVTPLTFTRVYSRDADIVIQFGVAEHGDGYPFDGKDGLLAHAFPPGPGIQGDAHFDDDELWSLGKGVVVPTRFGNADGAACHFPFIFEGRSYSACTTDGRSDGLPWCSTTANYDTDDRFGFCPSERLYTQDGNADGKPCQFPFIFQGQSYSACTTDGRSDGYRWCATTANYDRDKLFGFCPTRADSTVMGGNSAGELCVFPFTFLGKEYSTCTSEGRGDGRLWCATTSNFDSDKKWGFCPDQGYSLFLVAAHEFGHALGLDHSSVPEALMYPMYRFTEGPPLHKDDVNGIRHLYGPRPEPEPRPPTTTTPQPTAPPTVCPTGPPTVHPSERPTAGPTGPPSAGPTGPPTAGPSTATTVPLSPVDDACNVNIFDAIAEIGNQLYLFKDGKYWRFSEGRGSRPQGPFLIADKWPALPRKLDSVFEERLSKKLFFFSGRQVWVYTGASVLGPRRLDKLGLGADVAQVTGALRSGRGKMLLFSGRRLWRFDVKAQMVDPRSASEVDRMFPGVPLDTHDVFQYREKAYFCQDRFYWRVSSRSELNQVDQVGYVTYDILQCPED

B1: Scrambled 40-mer (ssDNA)
DNA: ACGCCAATAACGCTATTCGAGCTCGAGACGGCGCGATCTC
B1: binds.

Source: PMC5941315
